Measurements taken from the DeepSol protein solubility set.

Test: soluble on expression in E. coli; label from the status in PepcDB or PDB records

| Sequence | soluble on expression in E. coli |
| --- | --- |
| MRECISIHVGQAGVQIGNACWELYCLEHGIQPDGQMPSDKTIGGGDDSFNTFFSETGAGKHVPRAVFVDLEPTVIDEVRTGTYRQLFHPEQLITGKEDAANNYARGHYTIGKEIIDLVLDRIRKLADQCTGLQGFSVFHSFGGGTGSGFTSLLMERLSVDYGKKSKLEFSIYPAPQVSTAVVEPYNSILTTHTTLEHSDCAFMVDNEAIYDICRRNLDIERPTYTNLNRLIGQIVSSITASLRFDGALNVDLTEFQTNLVPYPRAHFPLATYAPVISAEKAYHEQLSVAEITNACFEPANQMVKCDPRHGKYMACCLLYRGDVVPKDVNAAIATIKTKRTIQFVDWCPTGFKVGINYEPPTVVPGGDLAKVQRAVCMLSNTTAIAEAWARLDHKFDLMYAKRAFVHWYVGEGMEEGEFSEAREDMAALEKDYEEVGVDSVEGEGEEEGEEY | soluble |
| MEIGQRVRINFEVATVRYIGEVDGYGSQRWVGLEWDDPTRGKHDGIVRGKRYFQTRHPNGGSLMKHEIVPKPTDLLFEIKDRYIEEESVETEIELAQSNKKIELIGMDQTAAKQSNIEKLINIVLDNRSVGFPPSSDSPQFILCRELNLYGNLLYKWKTVRQILEYFPRIQELNLRRNRMQCFNEEEDDDESEGDDHVYSDSCKKLVISECNLSENSIDSILLRFPSTSDVVAFGNDLTRFSVSEAVSSRLTSLDLEDNPFKTLDSIHGTFPNLTQLSVANCGITSLNGFDGSIKFPKLEYLNIKRNSIVEWKSVNSIRSLKSLKRLLFDCKKLSTEKGVHAYEIVIAKLSTLIDLNRFDVSEVERRSAEIRFLNKYAGLNDNEDHQDDIKRLIEIHGEPTLDTAKKGLAVVKIRIECGNRVETRRLPLGMSIQKIRDMLARLFKVPNTSKIRLYLVMSEKAKQHRIELENPLREFGHYSPSEDRDILVVEHD | not soluble |
| MLIRRKIMQYNDMSKEELLVLKESLNKEYAEAKAKGLALDMSRGKPSAKQLDVSLGLLDTINSSSDLKSLDGTDCRNYGVLDGIPEAKKLMADMMGTTPDHVIVYGNASLNIMYDQISRAYTHGILGNTPWCKLDKVKFLCPVPGYDRHFAITERFGIEMINIPMSESGPDMGMVEEYVSKDASVKGIWCVPKYSNPQGYTYSEETVKRMAALKPAAEDFRIFWDNAYVIHDLYDDNKDEIADIISECEKAGNPDMVFEFASTSKVSFPGSGIAALATSANNIADIKKQLTIQTIGHDKLNQLRHVRFFKDINGLKEHMRKHAEFIRPKFEAVESVLEEELSGLGIGSWTEPKGGYFISFDAMDGCAKAIVAKCKEAGVKLTGAGATFPYGKDPKDSNIRIAPSFPTPEEMKQAADLFVLCVKLVSVEKLLENK | not soluble |
| MDLFQAMRVYVKVVEAGSLTAAAQACSISTTMVGNHLRALEQRLGVSLLQRTTRRQRLTEFGTAYYERCLEVLGLVAESEQLAEQAQGDPSGTLRITAPLTFGSEVLAPALAGFSLRFPEVKLDLVLTNQRLDMIDNGFDIAIRLGNIPQSSPLIARLMQDYTLTICAAPSYLARHGTPAHPEDLGAHNCLAFSYPAGDEWRTAGTQWRMTGPEGEVLVDVDGSMVANTSAGLYQAACAGMGVVMLPDALVQRDLQEGRLVALLPGYHLPRRPMNLLYVQDRYRLPKVRSFVEYAMGLWGR | not soluble |
| ENILAGRAKAEKMRLSAERNRNQMEIYRSLQQGDECRKRQIHDYKNQLNCIRGLVDDNRTKEALRYIGQLTGSLNESIHQINTGHPVVNVLLNQKYQSAREQQISMTMTMNNLSELSLSEEDIVTLLANLLDNAIEACLKLHGDRRIQLKMVLEEEELFLSIRNPVEWEVKISGKTAAAAKEKSGEHGLGLGNVDAVIRKNRGRSTLQCQEGWFCFTAVILQPQR | not soluble |
| MAKDLLLEIGLEEMPAHVVTPSRIQLEEKVIKFLDEHHLDYETVQSFATPRRLAVKVTAIPEKQADVEEEVKGPAKKIALDAEGNWSKAAQGFVRGQGVTTEDIVFKELNGVEYVYVTKFTKGQSAKEVLTKLNDVITSLTFPVTMHWANYDFEYIRPIHWIVALLDDEVIPFKVLDVTTGQTSRGHRFLGDDVTFQHANEYEAKLKEQFVVVQPNERKQMIVDQANALAAEKNWQLALDEELLEEVTNLVEYPTAFVGSFDEKYLSVPDEVLVTSMKEHQRYFDVRNDQGLLMPHFIAVRNGDNVHLENVIKGNEKVLIARLEDAEFFYNEDKKLTIEACVEKLKNVTFHEKIGSIYEKMQRVALIAQIIGRKVGLSEDELEDLKRASEIYKFDLVTNMVGEFPELQGIMGEKYALLQGEKPAVATAIREHYLPTSSEGELPETAIGAVLALADKLDSVFSFFSVGMIPTGSNDPYALRRQTYGVIRIIEDKGWTFPLVQLQTEVDEAVNQDVEKYGVLLNEGQAEVVEFVKARLRQLLMTKNVRHDIIDAVVSAEQADLSKLFASANILKSRFEDQDFKPSMEALTRVINLAKKGQELLGDTEEGIDPSLFENKAEKELYQAVNDLSEAFATRTIAENYEALVNLRPLIDAYFNETMVMVEDEKVKQNRLKQLMQIAKMALSIASLDLLIVK | not soluble |
| AVKRRPRFPVNSNSNGGNELCPKIRIGQDDLPGFDLISQFQVDKAASRRAIQRVVGSATLQVAYKLGNNVDFRIPTRNLYPSGLPEEYSFLTTFRMTGSTLKKNWNIWQIQDSSGKEQVGIKINGQTQSVVFSYKGLDGSLQTAAFSNLSSLFDSQWHKIMIGVERSSATLFVDCNRIESLPIKPRGPIDIDGFAVLGKLADNPQVSVPFELQWMLIHCDPLRPRRETCHELPARITPSQTTDER | soluble |
| MSEYPILPSTLIPADPRFGCGPSKVRPAQLNAIVNAGADVIGTSHRQPAVKNIVGSIREGLSSLFSLPDGYEIVLSLGGATAFWDAATFGLIEKKSGHLTFGEFSGKFAKASAQAPWLDEPTIISAEPGDTPTPVAMEGCDVIAWAHNETSTGAMVPVIRPENSDGQLVAIDATSGAGGLPVDMHNADVYYFSPQKCFASDGGLWLAAMSPAALERIEKINASDRFIPAFLNLQTAVDNSRKNQTYNTPAVGTLLMLENQVEWMNANGGLDAMVERTTANSSALYEWAEKRAETTPYVTDPAKRSLVVGTIDFDDSIDAAALAKVLRANGILDVEPYRKLGRNQLRIGMFPAIDTADMDTLTAAIDYVLDNGFAQA | not soluble |
| MHHHHHHSSGVDLGTENLYFQSMPRIDADLKLDFKDVLLRPKRSSLKSRAEVDLERTFTFRNSKQTYSGIPIIVANMDTVGTFEMAAVMSQHSMFTAIHKHYSLDDWKLFATNHPECLQNVAVSSGSGQNDLEKMTSILEAVPQVKFICLDVANGYSEHFVEFVKLVRAKFPEHTIMAGNVVTGEMVEELILSGADIIKVGVGPGSVCTTRTKTGVGYPQLSAVIECADSAHGLKGHIISDGGCTCPGDVAKAFGAGADFVMLGGMFSGHTECAGEVIERNGRKLKLFYGMSSDTAMNKHAGGVAEYRASEGKTVEVPYKGDVENTILDILGGLRSTCTYVGAAKLKELSRRATFIRVTQQHNTVFS | soluble |
| MSLAANTQDVEITIPQGASLYQVSERLYDEGVIRSRLWFRYQGKISQADRNIRPGAYTFSPDTDLEEIFTLLQKGVPEQPVIMTIPEGFTLYEIAQRVESLGFGLAEEFIKATQDYFKSRDYSFDTSELYFEMEGYLYPDTYHLKKNQDMKAIVHSLVSPIDAFFSEEYIKRAEELGLSLHEVLTIASIIEREAYHDEERATVSGVIFNRLGIRMSLQIDATVIYGLGEGKEHRNRVLYADLETPNPFNTYMNTGIPPGPIAAPSKASIHATLYPEDHSYLYYVLGEGGHVFSETYQEHLKHVDAYRRRINEGHHHHHH | not soluble |
| MIAPRLVSIIIPTLNEEDAIAPTLRQARRQEGPVEILVADGGSTDDTRSVAQARGATVLQAPRGRAPQMNHGADCSSGDILLFLHADTRLPPNGLSRIRRALAAPDAIAGTFRLRFDDPTPLLRFYAWCTRWPWIRLCFGDRGQFVERSAFEAVGGFPDWPLFEDLELAARLQGHGRFRFLDAAVTTSARRFRRHGPLRQQLLNLYLWGHYLWGTDPDLLASLYPDRLGPVDQQPRSLEHHHHHH | soluble |
| MWWREKLFDGLRALELTKKTLKNKKERESMNQEELDKKLKKQEILVKDEKVWSYTYEDHISSIVKEAEKKGSFDHLPGKGKPLNLDKDLSYNPEKQLYRTLKNNHVLPRWIELSKEIDDLKEKLKENTNTAETADLIRTINKKVLEHNLLCPPSAQKTRVKTDFLEHHHHHH | soluble |
| MQSWYLLYCKRGQLQRAQEHLERQAVSCLTPMITLEKMVRGKRTSVSEPLFPNYLFVEFDPEVIHTTTINATRGVSHFVRFGAHPAIVPSSVIHQLSIYKPEGVVDPETPYPGDSVIITEGAFEGLKAIFTEPDGETRSMLLLNLLNKEVKQSVKNTGFRKI | not soluble |
